Measured values from the supplement of paper PMC9170038.

Legend:
MS2 coat protein = test: apparent KD of MS2 coat protein; higher = weaker reporter binding; conditions: Eterna round: R107
Procedure: (§1)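 RNA-MaP round R107: designed RNA switches with theophylline, tryptophan, arginine or FMN aptamers are transcribed on-chip within common flanks. They are titrated with SNAP-549-labelled MS2 coat protein in RNA-MaP buffer (100 mM Tris pH 7.5, 80 mM KCl, 4 mM MgCl2), without ligand or with the indicated ligand. Median apparent KD per design.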

[1] = tested on: K4 kissing-loop RNA reporter; test: apparent KD of K4 kissing-loop reporter; higher = weaker reporter binding; conditions: Eterna round: R107;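 further: bound reporter read as fluorescence of individual clusters on recovered sequencing chips by microscopy, with normalized cluster intensities fitted with a binding model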
Procedure: as §1, with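 “a labelled K4 kissing-loop RNA reporter” for “SNAP-549-labelled MS2 coat protein”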

[2] = input ligand: theophylline 20 uM
[3] = input ligand: theophylline 2 mM
[4] = input ligand: tryptophan 2.4 mM

AAGACAUGAGGAUCACCCAUGUCGACAAAACGAGGACCGGUACGGCCGCCACUCGAAAGCAAAUGAGCGCAUGCGGCCUGGGUAU [Exclusion Tryp A GF2]
apparent KD of MS2 coat protein (MS2 coat protein; input ligand: arginine 13.2 mM): 10.1 nM | apparent KD of MS2 coat protein (MS2 coat protein; input ligand: none): 11.9 nM | apparent KD of MS2 coat protein (MS2 coat protein; [2]): 14.1 nM | apparent KD of MS2 coat protein (MS2 coat protein; [3]): 12 nM | apparent KD of MS2 coat protein (MS2 coat protein; [4]): 12.7 nM

AAGUGGCACGGAAGGAGCGAGUUUACCUAAAUAACAUGAGGAUCACCCAUGUAUAAUGGGACUCAGGUAGGUCGCCGUUGUCACU [Same State Arginine B GF 23]
apparent KD of MS2 coat protein (MS2 coat protein; input ligand: arginine 13.2 mM): 22.9 nM | apparent KD of MS2 coat protein (MS2 coat protein; input ligand: none): 29.3 nM | apparent KD of MS2 coat protein (MS2 coat protein; [2]): 43.1 nM | apparent KD of MS2 coat protein (MS2 coat protein; [3]): 28.8 nM | apparent KD of MS2 coat protein (MS2 coat protein; [4]): 33 nM

AAUAACAUGAGGAUCACCCAUGUAAAAGAUACCAGAGUGAUGAUCCUCCCUUGGCAGCUUAAACGCUAUUGAUUACAAUAGCGAA [Mat - Same State Theophlline A - Mod of Eli - D2]
apparent KD of MS2 coat protein (MS2 coat protein; input ligand: arginine 13.2 mM): 29.8 nM | apparent KD of MS2 coat protein (MS2 coat protein; [2]): 114 nM | apparent KD of MS2 coat protein (MS2 coat protein; [4]): 28.6 nM

AAUAAUAUCCUCAUGUGAGUCGUACCGUAACGAGGACCGGUACGGCCGCCACUCGAACAUGAGGAUCACCCAUGUAGGUACGACA [M'-T'-T-MS2-T'' - Design 8]
apparent KD of MS2 coat protein (MS2 coat protein; input ligand: arginine 13.2 mM): 42.1 nM | apparent KD of MS2 coat protein (MS2 coat protein; [2]): 182 nM | apparent KD of MS2 coat protein (MS2 coat protein; [3]): 238 nM

AAUAAUCUAGGUGAUACCAGCUCAACAUGAGGAUCACCCAUGUACUCAUGUAGAGUUGAGAGCCCUUGGCAGCACCUAGAUAAUA [(Theo1)-(Ms2)-(M)'-(T)'-(Theo2)]
apparent KD of MS2 coat protein (MS2 coat protein; input ligand: arginine 13.2 mM): 198 nM | apparent KD of MS2 coat protein (MS2 coat protein; [2]): 665 nM | apparent KD of MS2 coat protein (MS2 coat protein; [4]): 1020 nM

AAUAUAAGUGUAAUUAUAUGUAUCUCUGAUACCAGACUCUCAUGUGUCCCUUGGCAGCAGUUACAUGAGGAUCACCCAUGUAUUA [JR_Nu_SSTheophyA_Sub024]
apparent KD of MS2 coat protein (MS2 coat protein; input ligand: arginine 13.2 mM): 34.3 nM | apparent KD of MS2 coat protein (MS2 coat protein; [2]): 80.2 nM | apparent KD of MS2 coat protein (MS2 coat protein; [4]): 84.5 nM

AAUCUGUCGGGUGAUACCAGCCUCGGCGCAUCUCACGCUGAACAUGAGGAUCACCCAUGUGGCCCUUGGCAGCACAUGACAAAUC [Tivece]
apparent KD of MS2 coat protein (MS2 coat protein; input ligand: arginine 13.2 mM): 202 nM | apparent KD of MS2 coat protein (MS2 coat protein; [2]): 709 nM | apparent KD of MS2 coat protein (MS2 coat protein; [4]): 620 nM

ACACACAUGAGGAUCACCCAUGUAAUAGAUACCAGUGACGCGGUGCACCCUUGGCAGCUGCUGCUGAGUGAUGGUUCCCUCGGAA [Exclusion Theophylline A GF7]
apparent KD of MS2 coat protein (MS2 coat protein; input ligand: arginine 13.2 mM): 16.8 nM | apparent KD of MS2 coat protein (MS2 coat protein; [2]): 25.9 nM | apparent KD of MS2 coat protein (MS2 coat protein; [4]): 19.2 nM

ACACAUGAUAGAAGGAGCGCAAUGAACACACAUGAGGAUCACCCAUGUUUUUUUUGUGUUUUGCAGGUAGGUCGCUAACAUGAGG [Same State Arginine B 4]
apparent KD of MS2 coat protein (MS2 coat protein; input ligand: arginine 13.2 mM): 11 nM | apparent KD of MS2 coat protein (MS2 coat protein; input ligand: none): 8.66 nM | apparent KD of MS2 coat protein (MS2 coat protein; [2]): 23.6 nM | apparent KD of MS2 coat protein (MS2 coat protein; [3]): 11 nM | apparent KD of MS2 coat protein (MS2 coat protein; [4]): 8.32 nM

ACACGAGGAUCACCCGUGUCAUGUGGUGAUACCAGUUUACAUGAGAACCCUUGGCAGCAUAACAACAUGAGGAUCACCCAUGUCA [Same State - Theophylline A #1]
apparent KD of MS2 coat protein (MS2 coat protein; input ligand: arginine 13.2 mM): 24.4 nM | apparent KD of MS2 coat protein (MS2 coat protein; [2]): 40.4 nM | apparent KD of MS2 coat protein (MS2 coat protein; [4]): 35 nM

ACAUCCAGAUUAAUCGUGGGCAUACUCGAUACCAGUAUUUUAACCUACCCUUGGCAGCGACAUGAGGAUCACCCAUGUGAGAUGA [XTheo A #10]
apparent KD of MS2 coat protein (MS2 coat protein; input ligand: arginine 13.2 mM): 21.4 nM | apparent KD of MS2 coat protein (MS2 coat protein; [2]): 25.2 nM | apparent KD of MS2 coat protein (MS2 coat protein; [4]): 23.8 nM

ACAUGAAGAACAGCGGUGGGCGCGCUCGAUACCAGUAUUUUAAACUACCCUUGGCAGCGACAUGAGGAUCACCCAUGUGAGAUGA [XTheo A #6]
apparent KD of MS2 coat protein (MS2 coat protein; input ligand: arginine 13.2 mM): 16.9 nM | apparent KD of MS2 coat protein (MS2 coat protein; [2]): 21.8 nM | apparent KD of MS2 coat protein (MS2 coat protein; [4]): 19.5 nM

UUUGGUUUCUCGGCCGCCACUCGUUGGUUAUGGGCUUCAGGGAUAUAGUGAUGUUAUGUAUAGAAGAGGACCGGGAGAAGGUUUG [ExTryptoB.Dt]
apparent KD of K4 kissing-loop reporter ([1]; input ligand: FMN 200 uM): 343 nM | apparent KD of K4 kissing-loop reporter ([1]; input ligand: arginine 13.2 mM): 343 nM | apparent KD of K4 kissing-loop reporter ([1]; input ligand: none): 318 nM | apparent KD of K4 kissing-loop reporter [1, 2]: 408 nM | apparent KD of K4 kissing-loop reporter [1, 4]: 301 nM

UUUGGUUUCUCGGCCGCCACUCGUUGUCUAUCGGCUUCAGGGAUAUAGUGAUGUUAUGUAUAGAAGAGGACCGGGAGAAGGUUCU [ExTryptoB.Dx]
apparent KD of K4 kissing-loop reporter ([1]; input ligand: FMN 200 uM): 280 nM | apparent KD of K4 kissing-loop reporter ([1]; input ligand: arginine 13.2 mM): 267 nM | apparent KD of K4 kissing-loop reporter ([1]; input ligand: none): 347 nM | apparent KD of K4 kissing-loop reporter [1, 2]: 307 nM | apparent KD of K4 kissing-loop reporter [1, 4]: 182 nM

UUUGUAUAGGGAAGGAGCGUGAAUGAUAAUGAAUAUAGUGAUGUUAUAUAGAAGAAAGAAUCACAGGUAGGUCGCCCGGAGGAGG [SSArgB.I]
apparent KD of K4 kissing-loop reporter ([1]; input ligand: FMN 200 uM): 198 nM | apparent KD of K4 kissing-loop reporter ([1]; input ligand: arginine 13.2 mM): 234 nM | apparent KD of K4 kissing-loop reporter ([1]; input ligand: none): 1000 nM | apparent KD of K4 kissing-loop reporter [1, 2]: 456 nM | apparent KD of K4 kissing-loop reporter [1, 4]: 247 nM

UUUGUAUCGGGAAGGAGCGUGAAUGAUAAUGAAUAUAGUGAUGUUAUAUAUAAGAACGAAUCACAGGUAGGUCGCCCGGAUGACU [SSArgB.O]
apparent KD of K4 kissing-loop reporter ([1]; input ligand: FMN 200 uM): 747 nM | apparent KD of K4 kissing-loop reporter ([1]; input ligand: arginine 13.2 mM): 555 nM | apparent KD of K4 kissing-loop reporter ([1]; input ligand: none): 515 nM | apparent KD of K4 kissing-loop reporter [1, 2]: 729 nM | apparent KD of K4 kissing-loop reporter [1, 4]: 364 nM

UUUGUAUCGGGAAGGAGCGUGAAUGAUAAUGGAUAUAGUGAUGUUAUAUAUAAGAACGAAUCGCAGGUAGGUCGCCCGGAUGACU [SSArgB.Q]
apparent KD of K4 kissing-loop reporter ([1]; input ligand: FMN 200 uM): 431 nM | apparent KD of K4 kissing-loop reporter ([1]; input ligand: arginine 13.2 mM): 388 nM | apparent KD of K4 kissing-loop reporter ([1]; input ligand: none): 413 nM | apparent KD of K4 kissing-loop reporter [1, 2]: 400 nM | apparent KD of K4 kissing-loop reporter [1, 4]: 252 nM

UUUUAAAUAUCUGAUACCAGAGAAAAUAUAUGUAGUGAUGUUAUAUACAAAAUAAUUAAGCUCCCUUGGCAGCAGUAUUAAUUUU [AstrosExc-TheB#3]
apparent KD of K4 kissing-loop reporter ([1]; input ligand: FMN 200 uM): 612 nM | apparent KD of K4 kissing-loop reporter ([1]; input ligand: arginine 13.2 mM): 658 nM | apparent KD of K4 kissing-loop reporter ([1]; input ligand: none): 946 nM | apparent KD of K4 kissing-loop reporter [1, 2]: 705 nM | apparent KD of K4 kissing-loop reporter [1, 4]: 541 nM

UUUUAGGUAUCUGAUACCAGAGAAAAUAUAUGUAGUGAUGUUAUAUACAAAAUAAUUAAGCUCCCUUGGCAGCAGUUUUAAUUUU [AstrosExc-TheB#5]
apparent KD of K4 kissing-loop reporter ([1]; input ligand: FMN 200 uM): 872 nM | apparent KD of K4 kissing-loop reporter ([1]; input ligand: arginine 13.2 mM): 730 nM | apparent KD of K4 kissing-loop reporter ([1]; input ligand: none): 902 nM | apparent KD of K4 kissing-loop reporter [1, 2]: 763 nM | apparent KD of K4 kissing-loop reporter [1, 4]: 633 nM

UUUUGGUACUGAGGAUAUUCGAAGAAAUAUAGUGAUGUUAUAUAAGGAGGAGGAGGGAGGGAGGAAGGAGAAGGCAGAAGAGGAG [ExFMNB.G]
apparent KD of K4 kissing-loop reporter ([1]; input ligand: FMN 200 uM): 289 nM | apparent KD of K4 kissing-loop reporter ([1]; input ligand: arginine 13.2 mM): 163 nM | apparent KD of K4 kissing-loop reporter ([1]; input ligand: none): 235 nM | apparent KD of K4 kissing-loop reporter [1, 2]: 225 nM | apparent KD of K4 kissing-loop reporter [1, 4]: 266 nM
